Target: T1, human FcγRIIB (human, UniProt P31994 43-310)
T1 construct: whole, on cells; Native receptor on human cells or in frozen tissue sections; also called CD32B
T1 sequence (looked up): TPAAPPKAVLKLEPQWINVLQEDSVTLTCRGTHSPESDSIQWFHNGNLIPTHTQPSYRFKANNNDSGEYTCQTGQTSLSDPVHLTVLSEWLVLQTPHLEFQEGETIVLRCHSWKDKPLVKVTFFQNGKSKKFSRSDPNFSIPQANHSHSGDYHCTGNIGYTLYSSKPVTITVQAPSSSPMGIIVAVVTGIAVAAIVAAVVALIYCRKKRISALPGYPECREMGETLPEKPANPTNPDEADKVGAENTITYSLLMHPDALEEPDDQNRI
Test: immunohistochemistry, frozen lymph node, patient MG04-CHTN-19; grade = share of positive cells
Protocol: The remaining portions of these samples were placed in cryomolds and embedded in OCT cryocompound (Tissue-Tek). Once the blocks were ready, each was sectioned under a Cryostat (Leica Microsystems) at 6 microns. The slides were placed in 4° C. acetone and fixed for 10 minutes. Hours after fixation the slides were air dried and washed with phosphate buffer saline (PBS). Then endogenous peroxide activity was blocked by a 30 minute incubation in a 0.3% hydrogen peroxide solution. The slides were washed in PBS and incubated for 30 minutes with 10% normal goat serum in 2% normal human serum. After this step, the slides were divided in two groups. Two monoclonal antibodies were utilize and incubated on the same tissue in parallel, an anti-CD20 (1F5—a hybridoma, ATCC No. HB-9645, purified at Macrogenics) and the murine monoclonal anti-CD32B antibody, 2B6. Each group was incubated with one monoclonal antibody and their respective Isotype control, IgG1 (BD Biosciences, San Jose, Calif.) for the 2B6/anti-CD32B group and IgG2a (BD Biosciences) for the 1F5/anti-CD20 group. Mouse IgG1 and murine IgG2a were used as Isotype controls for anti-CD32B and anti-CD20, respectively. After one hour of incubation at room temperature, the slides were washed in PBS and incubated with a secondary antibody Goat anti Mouse labeled peroxidase (Jackson ImmunoResearch Laboratories, West Grove, Pa.). […]

B1: monoclonal antibody produced by clone 2B6 (ATCC accession number PTA-4591) (antibody, V domains shown)
VH: QVQLQQPVTELVRPGASVMLSCKASDYPFTNYWIHWVKQRPGQGLEWIGVIDPSDTYPNYNKKFKGKATLTVVVSSSTAYMQLSSLTSDDSAVYYCARNGDSDYYSGMDYWGQGTSVTVSS
VL: DILLTQSPAILSVSPGERVSFSCRTSQSIGTNIHWYQQRTNGFPRLLIKNVSESISGIPSRFSGSGSGTDFILSINSVESEDIADYYCQQSNTWPFTFGGGTKLEIK
notes: Mouse hybridoma antibody; mouse IgG1 was used as its isotype control; also called murine monoclonal anti-CD32B antibody, 2B6; anti-CD32B
binding result: binds

From US20090191195A1 (MacroGenics, published 2009)
